One molecule from PMC4914250 can be followed below.

One data set addresses WT p53 DBD (UniProt P04637 94-293). As to the kind of experiment: pull-down (streptavidin beads, Western blot); DBD pull-down: streptavidin beads with biotinylated oligo, 3 h at 4 C; Figure 1A: 50 ng protein; buffer, salt and pH not in the material; ELISA per R&D kit. The note with it: protein: recombinant; label: 5' biotin; annealed to complementary oligo. (In general: A western blot detects proteins with antibodies after separation by electrophoresis.)

For data set [1], the target named is WT p53 full length (His-tagged) (UniProt P04637 1-393). The data set is described as above. As to conditions: protein: recombinant; tags: His; label: 5' biotin; annealed to complementary oligo.
WT p53 full length (His-tagged), sequence (P04637 whole entry): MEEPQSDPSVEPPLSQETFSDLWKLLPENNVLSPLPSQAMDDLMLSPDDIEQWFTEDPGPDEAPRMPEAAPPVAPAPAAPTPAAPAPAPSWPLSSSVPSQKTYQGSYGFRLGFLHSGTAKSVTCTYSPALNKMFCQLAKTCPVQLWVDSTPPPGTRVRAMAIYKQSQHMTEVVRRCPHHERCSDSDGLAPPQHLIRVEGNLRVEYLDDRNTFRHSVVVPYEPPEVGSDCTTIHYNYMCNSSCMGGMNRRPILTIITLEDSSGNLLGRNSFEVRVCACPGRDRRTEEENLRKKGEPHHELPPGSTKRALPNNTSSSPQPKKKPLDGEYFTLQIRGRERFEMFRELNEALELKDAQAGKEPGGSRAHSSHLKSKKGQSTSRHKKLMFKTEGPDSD

WT p53 DBD, sequence (P04637 94-293): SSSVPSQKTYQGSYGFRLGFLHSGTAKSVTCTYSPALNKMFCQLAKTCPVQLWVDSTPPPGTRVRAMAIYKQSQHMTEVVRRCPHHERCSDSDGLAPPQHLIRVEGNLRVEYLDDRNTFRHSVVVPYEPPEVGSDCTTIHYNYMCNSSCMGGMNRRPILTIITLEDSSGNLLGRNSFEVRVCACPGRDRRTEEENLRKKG

B1: p53RE oligo (dsDNA)
DNA 1: CTGCTGAAGCTTCGAATTCCTAGACATGCCCAGACATGTCCTACTGCTGCTGCTGCTGCTGCTGCGAACATGTCCCAACATGTTGCTGCTGCTGCTGCTG
DNA 2: CAGCAGCAGCAGCAGCAACATGTTGGGACATGTTCGCAGCAGCAGCAGCAGCAGCAGTAGGACATGTCTGGGCATGTCTAGGAATTCGAAGCTTCAGCAG
In the case of B1, the binding result (with WT p53 DBD; in data set [1]) was “binds” throughout.
